Laboratory results as given in patent publication US20240010754A1 (JIANGSU HENGRUI MEDICINE, published 2024).

T1: human FAP (human, UniProt Q12884 1-760)
T1 construct: whole, on cells; also called CHO/FAP; Flp-In CHO/FAP
T1 sequence (looked up): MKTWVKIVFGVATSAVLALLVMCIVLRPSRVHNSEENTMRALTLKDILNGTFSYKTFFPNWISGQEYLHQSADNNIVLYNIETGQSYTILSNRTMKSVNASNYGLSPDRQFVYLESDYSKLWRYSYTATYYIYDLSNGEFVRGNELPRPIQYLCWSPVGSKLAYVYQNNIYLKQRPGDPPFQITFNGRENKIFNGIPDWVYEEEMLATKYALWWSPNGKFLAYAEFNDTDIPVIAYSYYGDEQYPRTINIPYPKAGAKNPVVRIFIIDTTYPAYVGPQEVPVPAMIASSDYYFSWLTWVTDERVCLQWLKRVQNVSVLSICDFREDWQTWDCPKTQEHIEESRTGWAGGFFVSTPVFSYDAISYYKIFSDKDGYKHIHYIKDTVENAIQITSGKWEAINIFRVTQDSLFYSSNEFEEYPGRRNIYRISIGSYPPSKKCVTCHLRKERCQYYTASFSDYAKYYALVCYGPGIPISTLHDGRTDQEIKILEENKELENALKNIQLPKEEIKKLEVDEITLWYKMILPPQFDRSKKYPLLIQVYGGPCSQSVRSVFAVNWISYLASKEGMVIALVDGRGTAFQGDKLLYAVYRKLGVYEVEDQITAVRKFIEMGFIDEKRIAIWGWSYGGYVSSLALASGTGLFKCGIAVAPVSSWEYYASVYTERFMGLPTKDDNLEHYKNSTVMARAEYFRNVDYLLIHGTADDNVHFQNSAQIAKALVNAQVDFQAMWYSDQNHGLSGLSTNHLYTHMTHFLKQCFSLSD


Columns and labels:
[1] = biological target: T2, human PD-1 (human, UniProt Q15116 25-288); experiment: flow cytometry cell cross-linking (CHO-K1/PD-1 + HEK293/CTLA-4 cells), antibody at 1 nM
T2 construct: whole, on cells; also called CHO-K1/PD-1
T2 sequence (Q15116 25-288): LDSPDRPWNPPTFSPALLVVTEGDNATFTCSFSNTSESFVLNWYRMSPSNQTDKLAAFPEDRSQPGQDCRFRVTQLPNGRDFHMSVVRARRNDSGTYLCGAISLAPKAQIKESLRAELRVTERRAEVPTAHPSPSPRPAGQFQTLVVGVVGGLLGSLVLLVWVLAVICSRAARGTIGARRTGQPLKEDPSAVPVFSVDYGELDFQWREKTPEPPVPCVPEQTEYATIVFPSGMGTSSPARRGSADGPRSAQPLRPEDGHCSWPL
Experimental: (§1) The ability of PD-1×CTLA-4 bispecific antibodies to co-bind to cells highly expressing human PD-1 and human CTLA-4 after polishing purification was determined by flow cytometry. First, HEK293 cells were transiently transfected with human CTLA-4 plasmids, and 24 h after the transfection, the HEK293 cells highly expressing CTLA-4 were labeled with Cell Trace Far red (Invitrogen, C34564), and the CHO-K1/PD-1 stably transfected strain was labeled with Cell Trace Violet (Invitrogen, C34557). The cells were added to a 96-well U-bottom plate (Costar, 3599) at 2E5 cells/well, and the test antibody was diluted to 100 nM, 10 nM, 1 nM, 0.1 nM and 0.01 nM and added to the 96-well U-bottom plate at 50 μL/well, making a total volume of 150 μL/well. The plate was incubated at 4° C. in a dark place for 1 h. The double-positive cell percentage of HEK293/CTLA-4 of CTLA-4 and CHO-K1/PD-1 was determined by flow cytometry.
(§2) According to Example 1.4, the ability of each of the PD-1×CTLA-4 bispecific antibodies TJ030-PR1102 (F126C-S121C was placed into the CTLA-4 arm), TJ030-PR1104 (F170C-T164C was placed into the CTLA-4 arm), TJ030-PR1106 (F126C-S121C was placed into the PD-1 arm) and TJ030-PR1108 (F170C-T164C was placed into the PD-1 arm) to co-bind to cells highly expressing human PD-1 and human CTLA-4 after polishing purification was determined by flow cytometry, with CTLA-4 monoclonal antibody and IgG as negative controls. […] Such cross-linking of cells occurred in bispecific antibody molecule incubation only rather than monoclonal antibody or IgG1 incubation.

[2] = biological target: T2, human PD-1; experiment: flow cytometry cell cross-linking (CHO-K1/PD-1 + HEK293/CTLA-4 cells), antibody at 30 nM
Experimental: as §1, §2

[3] = biological target: T2, human PD-1; experiment: flow cytometry cell cross-linking (CHO-K1/PD-1 + HEK293/CTLA-4 cells), antibody at 0.3 nM
Experimental: as §1, with “The cells were added to a 96-well U-bottom plate (Costar, 3599) at 2E5 cells/well, and the test antibody was diluted to 100 nM, 10 nM, 1 nM, 0.1 nM and 0.01 nM and added to the 96-well U-bottom plate at 50 μL/well, making a total volume of 150 μL/well.” left out
as §2

[4] = biological target: T2, human PD-1; experiment: flow cytometry cell cross-linking (CHO-K1/PD-1 + HEK293/CTLA-4 cells), antibody at 3 nM
Experimental: as §1, §2

[5] = biological target: T2, human PD-1; experiment: flow cytometry cell cross-linking (CHO-K1/PD-1 + HEK293/CTLA-4 cells), antibody at 0.03 nM
Experimental: as §1, with “The cells were added to a 96-well U-bottom plate (Costar, 3599) at 2E5 cells/well, and the test antibody was diluted to 100 nM, 10 nM, 1 nM, 0.1 nM and 0.01 nM and added to the 96-well U-bottom plate at 50 μL/well, making a total volume of 150 μL/well.” left out
as §2

[6] = biological target: T2, human PD-1; experiment: flow cytometry cell cross-linking (CHO-K1/PD-1 + HEK293/CTLA-4 cells), antibody at 10 nM
Experimental: as §1, §2

[7] = biological target: T2, human PD-1; experiment: flow cytometry cell cross-linking (CHO-K1/PD-1 + HEK293/CTLA-4 cells), antibody at 100 nM
Experimental: as §1, §2

[8] = biological target: T2, human PD-1; experiment: flow cytometry cell cross-linking (CHO-K1/PD-1 + HEK293/CTLA-4 cells), antibody at 0.1 nM
Experimental: as §1, §2

[9] = biological target: T1, human FAP; experiment: FACS binding to CHO/FAP cells
Experimental: (§3) CHO cells stably expressing human FAP (i.e., CHO/FAP cells) and HEK293 cells 48 hours after transient transfection (i.e., HEK293/CD40 cells) in the logarithmic growth phase were collected by centrifugation, washed with PBS and then centrifuged. The cells were plated at 2E5 cells/100 μL/well and centrifuged at 400 g for 5 min Different concentrations of test antibody were added. The cells were incubated on ice for 1 h, washed with PBS and centrifuged at 400 g for 5 min The goat anti-human secondary antibody Alexa Fluor 488 with a fluorophore was added, and the cells were stained in an ice bath for 1 h, washed twice with PBS and then assayed on a flow cytometer.
(§4) The bispecific antibodies ERP2006-BS0012 and ERP2006-BS0015 have similar affinity for FAP to the parent FAP monoclonal antibody AblO and similar affinity for CD40 to the parent CD40 monoclonal antibody 9E5-25.

[10] = biological target: T3, human CD40 (human, UniProt P25942 21-277); experiment: FACS binding to HEK293/CD40 cells
T3 construct: whole, on cells; also called HEK293/CD40; HEK-Blue CD40L cell
T3 sequence (P25942 21-277): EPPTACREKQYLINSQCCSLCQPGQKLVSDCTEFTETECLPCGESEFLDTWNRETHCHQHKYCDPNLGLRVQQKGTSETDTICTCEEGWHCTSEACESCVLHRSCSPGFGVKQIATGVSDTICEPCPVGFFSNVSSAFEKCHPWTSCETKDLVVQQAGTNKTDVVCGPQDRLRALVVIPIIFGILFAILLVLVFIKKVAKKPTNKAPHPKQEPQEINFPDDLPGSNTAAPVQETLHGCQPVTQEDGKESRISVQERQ
Experimental: as §3, §4

| Binder | proportion of double-positive cells [1] [%] | proportion of double-positive cells [2] [%] | proportion of double-positive cells [3] [%] | proportion of double-positive cells [4] [%] | proportion of double-positive cells [5] [%] | proportion of double-positive cells [6] [%] | proportion of double-positive cells [7] [%] | proportion of double-positive cells [8] [%] | EC50 [9] [nM] | EC50 [10] [nM] | binding result [9] |
| --- | --- | --- | --- | --- | --- | --- | --- | --- | --- | --- | --- |
| TJ030-PR1102 (bispecific antibody, human IgG1, kappa, L234A L235A, 1+1 asymmetric knob-into-hole bispecific IgG1; knob on the PD-1 arm, hole on the CTLA-4 arm; tested after polishing purification; also called PD-1×CTLA-4 bispecific antibody (F126C-S121C placed into the CTLA-4 arm)) heavy 1: not shown light 1: DIVMTQTPLSLPVTPGEPASISCRSSQSLVHSTGNTYLEWYLQKPGQSPQLLIYKVSNRFSGVPDRFSGSGSGTDFTLKISRVEAEDVGVYYCFQGSHVPYTFGGGTKVEIKRTVAAPSVFIFPPSDEQLKSGTASVVCLLNNFYPREAKVQWKVDNALQSGNSQESVTEQDSKDSTYSLSSTLTLSKADYEKHKVYACEVTHQGLSSPVTKSFNRGEC heavy 2: not shown light 2: not shown | 25.1 | 26.7 | 20.7 | 32.2 | 8.87 | 32.4 | 22.2 | 11.8 | – | – | – |
| ERP2006-BS0012 (bispecific antibody, human IgG1, kappa, lambda, 2+2 symmetric bispecific: [CD40 VH-CH1]-Fc-linker-[FAP VH-CH1] heavy chain with two kinds of light chain; also called FAP×CD40 bispecific antibody) heavy: not shown light 1: DIVMTQSPLSLPVTPGEPASISCRSSQNIVNSQGNTYLEWYLQKPGQSPQLLIYKVTNRFSGVPDRFSGSGSGTDFTLKISRVEAEDVGVYYCFQASLVPWTFGGGTKVEIKRTVAAPSVFIFPPSDEQLKSGTASVVCLLNNFYPREAKVQWKVDNALQSGNSQESVTEQDSKDSTYSLSSTLTLSKADYEKHKVYACEVTHQGLSSPVTKSFNRGEC light 2: DIQMTQSPSSVSASVGDRVTITCRASQGISSWLAWYQQKPGKAPKLLIYAASSLQSGVPSRFSGSGSGTDFTLTISSLQPEDFATYYCQQANSFPPAFGQGTKVEIKGQPKAAPSVTLFPPSSEELQANKATLVCLISDFYPGAVTVAWKADSSPVKAGVETTTPCKQSNNKYAASSYLSLTPEQWKSHRSYSCQVTHEGSTVEKTVAPTESS | – | – | – | – | – | – | – | – | 0.349 | 0.471 | – |
| TJ030-PR1104 (bispecific antibody, human IgG1, kappa, L234A L235A, 1+1 asymmetric knob-into-hole bispecific IgG1; knob on the PD-1 arm, hole on the CTLA-4 arm; tested after polishing purification; also called PD-1×CTLA-4 bispecific antibody (F170C-T164C placed into the CTLA-4 arm)) heavy 1: not shown light 1: DIVMTQTPLSLPVTPGEPASISCRSSQSLVHSTGNTYLEWYLQKPGQSPQLLIYKVSNRFSGVPDRFSGSGSGTDFTLKISRVEAEDVGVYYCFQGSHVPYTFGGGTKVEIKRTVAAPSVFIFPPSDEQLKSGTASVVCLLNNFYPREAKVQWKVDNALQSGNSQESVTEQDSKDSTYSLSSTLTLSKADYEKHKVYACEVTHQGLSSPVTKSFNRGEC heavy 2: not shown light 2: not shown | 30.5 | 32.1 | 25.3 | 35.8 | 10.4 | 34.8 | 25.4 | 18.2 | – | – | – |
| TJ030-PR1108 (bispecific antibody, human IgG1, kappa, L234A L235A, 1+1 asymmetric knob-into-hole bispecific IgG1; knob on the PD-1 arm, hole on the CTLA-4 arm; tested after polishing purification; also called PD-1×CTLA-4 bispecific antibody (F170C-T164C placed into the PD-1 arm)) heavy 1: not shown light 1: DIVMTQTPLSLPVTPGEPASISCRSSQSLVHSTGNTYLEWYLQKPGQSPQLLIYKVSNRFSGVPDRFSGSGSGTDFTLKISRVEAEDVGVYYCFQGSHVPYTFGGGTKVEIKRTVAAPSVFIFPPSDEQLKSGTASVVCLLNNFYPREAKVQWKVDNALQSGNSQESVCEQDSKDSTYSLSSTLTLSKADYEKHKVYACEVTHQGLSSPVTKSFNRGEA heavy 2: not shown light 2: not shown | 33.2 | 31.4 | 24.2 | 35.3 | 11.8 | 37.7 | 27.2 | 17 | – | – | – |
| TJ030-PR1106 (bispecific antibody, human IgG1, kappa, L234A L235A, 1+1 asymmetric knob-into-hole bispecific IgG1; knob on the PD-1 arm, hole on the CTLA-4 arm; tested after polishing purification; also called PD-1×CTLA-4 bispecific antibody (F126C-S121C placed into the PD-1 arm)) heavy 1: not shown light 1: DIVMTQTPLSLPVTPGEPASISCRSSQSLVHSTGNTYLEWYLQKPGQSPQLLIYKVSNRFSGVPDRFSGSGSGTDFTLKISRVEAEDVGVYYCFQGSHVPYTFGGGTKVEIKRTVAAPSVFIFPPCDEQLKSGTASVVCLLNNFYPREAKVQWKVDNALQSGNSQESVTEQDSKDSTYSLSSTLTLSKADYEKHKVYACEVTHQGLSSPVTKSFNRGEA heavy 2: not shown light 2: not shown | 34.7 | 33.1 | 26.3 | 37.4 | 10.9 | 38.1 | 23.9 | 19.1 | – | – | – |
| parent FAP monoclonal antibody Ab10 (antibody, V domains shown, also called AblO) VH: QVQLQQSGVEVKKPGASVTVSCRASGYSFADHFIHWVRQAPGQGFQWMGWINPNRGVTHHAQDFQGRVAMTRDMSTDTVYMELTSLRSDDTAVYYCARDASLTARPYYFYGFDVWGQGTLVTVSS VL: DIQMTQSPSSVSASVGDRVTITCRASQGISSWLAWYQQKPGKAPKLLIYAASSLQSGVPSRFSGSGSGTDFTLTISSLQPEDFATYYCQQANSFPPAFGQGTKVEIK | – | – | – | – | – | – | – | – | – | – | binds |
| ERP2006-BS0015 (bispecific antibody, 2+2 symmetric bispecific: [CD40 VH-CH1]-Fc-linker-[FAP VH-CH1] heavy chain with two kinds of light chain; also called FAP×CD40 bispecific antibody) heavy: not shown light 1: DIVMTQSPLSLPVTPGEPASISCRSSQNIVNSQGNTYLEWYLQKPGQSPQLLIYKVTNRFSGVPDRFSGSGSGTDFTLKISRVEAEDVGVYYCFQASLVPWTFGGGTKVEIKGQPKAAPSVTLFPPSSEELQANKATLVCLISDFYPGAVTVAWKADSSPVKAGVETTTPCKQSNNKYAASSYLSLTPEQWKSHRSYSCQVTHEGSTVEKTVAPTESS light 2: DIQMTQSPSSVSASVGDRVTITCRASQGISSWLAWYQQKPGKAPKLLIYAASSLQSGVPSRFSGSGSGTDFTLTISSLQPEDFATYYCQQANSFPPAFGQGTKVEIKRTVAAPSVFIFPPSDEQLKSGTASVVCLLNNFYPREAKVQWKVDNALQSGNSQESVTEQDSKDSTYSLSSTLTLSKADYEKHKVYACEVTHQGLSSPVTKSFNRGEC | – | – | – | – | – | – | – | – | 0.336 | 0.456 | – |
